The chains are these.
B1: OR4K15 (parent)
chain: GUUAACGGUCAUAGGCCAUGGAAACUAGGAGCACCAUUUCGCUGCCAGUGAAGAAAUGAACAAAGAAAAUCUGGGCCAGGCAGGCAUCAAAAGAAAUAGUCUUGCGCUCAACCAGAAAGUCUGUAAUCAUUUUAAGGGUA

We go through 167 variants from the RNAGym collection of RNA variant scans (doi:10.7554/elife.90254).

The variants in the data set derive from B1. Nature of the data set: self-cleavage, relative activity (ratio to wild type); higher = more cleavage; in vitro, sequencing; the parent is a self-cleaving ribozyme.
For the variant A47U A110C, the self-cleavage is 0.13.
As to A51G A135G, the self-cleavage came out at 1.7.
With G50A A64G the figure was 1.22; with A51G A90G, 1.29.
On to U49A A51U, for which the self-cleavage came out at 1.63.
Turning to U49A A51C, the self-cleavage is 0.3.
With U49G A56G the figure was 1.64; with U49A U130C, 1.53; with G48U A94G, 0.54.
Consider A47G G106A, for which the self-cleavage stood at 0.
Take U49G U72A: the self-cleavage was found to be 0.32.
On to A51G C71A, for which the self-cleavage came to 0.89.
On to G48U A114U, for which the self-cleavage is 0.09.
Then U49C U139C, with 1.71.
As to G48A A55G, the self-cleavage is 1.61.
U49C A52U: the self-cleavage turned out to be 1.38.
With A51G A78U, the self-cleavage is 0.35.
On to U49C A55G, for which the self-cleavage amounted to 1.22.
On to A47U C105U, for which the self-cleavage was 0.14.
For A51G A114U, the self-cleavage came to 0.08.
On to U49A A68G, for which the self-cleavage came to 0.95.
For U49C U108C, the self-cleavage stood at 0.01.
As for G50U U103C, the self-cleavage is 1.23.
Turning to G48A A66U, the self-cleavage stood at 1.33.
As for A47U A89G, the self-cleavage was determined as 0.86.
As to A47U A89U, the self-cleavage was 0.95.
Consider G50U G53A, for which the self-cleavage was 2.2.
Turning to A47U A111U, the self-cleavage stood at 0.06.
As for A47G U120C, the self-cleavage was 0.48.
As to U49A U132C, the self-cleavage is 1.09.
Regarding U49A A90U, the self-cleavage was 1.26.
Consider G50A A95U, for which the self-cleavage is 1.28.
Regarding A47U G75A, the self-cleavage worked out at 0.14.
As to U49C G138C, the self-cleavage was 1.54.
For A51G G53U, the self-cleavage turned out to be 1.66.
As for G48C A63G, the self-cleavage is 1.45.
On to U49C C77U, for which the self-cleavage came to 2.23.
Then U49C U102A, with 0.53.
In the case of U49C U102C, the self-cleavage came out at 2.
For the variant U49C U103C, the self-cleavage was found to be 1.01.
For the variant A51G U72A, the self-cleavage stood at 0.13.
With G50U A96G, the self-cleavage amounted to 2.5.
A51G A82U: the self-cleavage stood at 0.25.
For G48A U72A, the self-cleavage turned out to be 0.2.
With U49C A94U, the self-cleavage turned out to be 1.36.
On to U49A A52G, for which the self-cleavage came out at 0.96.
For G48U U103C, the self-cleavage is 0.49.
With G48A U70C the figure was 0.31; with U49A C107U, 0.04.
With U49C A135C the figure was 0.89; with U49C A135G, 1.97.
With A47G U122C the figure was 0.62; with A47G U122A, 1.11; with G50U A82U, 0.23.
With A51G A98U, the self-cleavage came out at 2.81.
As to G50U A52G, the self-cleavage was 0.42.
In the case of G48A A56G, the self-cleavage was 1.34.
With G48C A55G the figure was 1.64; with U49C U100C, 2.
Turning to U49C U100G, the self-cleavage worked out at 1.72.
As for U49C U100A, the self-cleavage worked out at 0.63.
With A51G U127G, the self-cleavage was 1.9.
For A47G U87A, the self-cleavage is 1.63.
Then A51C A92U, with 0.57.
On to U49A A125G, for which the self-cleavage is 0.82.
With G48A U102C the figure was 1.99.
For G48A A68G, the self-cleavage turned out to be 1.7.
A51G A134G: the self-cleavage was 1.55.
Consider A51G A134C, for which the self-cleavage was found to be 1.4.
With A47U A117U, the self-cleavage is 0.71.
With A47U A117G the figure was 1.25; with G48A A69G, 1.49.
With A51G U131A, the self-cleavage came out at 0.59.
U49C U127A: the self-cleavage worked out at 2.43.
In the case of U49C U127G, the self-cleavage worked out at 1.49.
Consider U49C U127C, for which the self-cleavage is 0.94.
With A47U A68U, the self-cleavage stood at 0.73.
Regarding A47G A140U, the self-cleavage turned out to be 1.24.
On to A47G C81U, for which the self-cleavage was 0.25.
Regarding A47U U108A, the self-cleavage came to 0.01.
Turning to U49C A134G, the self-cleavage was 1.38.
With G50A U100C the figure was 2.01; with G50A U100G, 0.96.
With A51G A89C the figure was 1.6.
With U49A C121A, the self-cleavage came out at 0.95.
As for A47G G99A, the self-cleavage is 0.4.
With A47G G99U, the self-cleavage is 0.51.
With U49G A98G, the self-cleavage worked out at 0.14.
As for A51G G104A, the self-cleavage is 0.03.
With U49A A114U the figure was 0.04; with U49A U124A, 0.56; with A51C A59G, 1.73.
For U49C U120G, the self-cleavage came to 1.33.
On to A47U A134G, for which the self-cleavage came out at 1.24.
In the case of U49A A96G, the self-cleavage was determined as 1.12.
Take U49C U130C: the self-cleavage was found to be 0.77.
As to A51G A63G, the self-cleavage was 1.17.
Consider A51G A63U, for which the self-cleavage turned out to be 1.83.
Turning to U49A A55G, the self-cleavage is 1.53.
Take A51G U100G: the self-cleavage came to 1.63.
With A47G U132A, the self-cleavage is 1.55.
With U49G U130A the figure was 0.36.
Regarding G50A A92U, the self-cleavage came to 2.15.
Regarding U49C C85G, the self-cleavage was determined as 1.62.
In the case of A47G U57C, the self-cleavage amounted to 0.69.
With G50U U127C the figure was 1.29.
Take A51G A60U: the self-cleavage is 1.68.
Take U49A A59G: the self-cleavage came out at 1.44.
On to A51G U103A, for which the self-cleavage worked out at 0.32.
Regarding A51G U103G, the self-cleavage came to 0.05.
Consider A51C A94G, for which the self-cleavage worked out at 2.16.
Regarding A51C A110U, the self-cleavage came to 0.82.
As to A47U A96G, the self-cleavage was 1.28.
As to G50A A51G, the self-cleavage stood at 1.82.
As for A47U A92G, the self-cleavage came to 0.84.
Regarding A47U A118C, the self-cleavage stood at 0.48.
Then U49C A69U, with 2; and U49C A69G, with 1.2.
With A51G A92U the figure was 2.09; with A51G A92G, 1.45; with A51G G123A, 2.08.
On to A47G U103C, for which the self-cleavage is 0.34.
Then U49C A92G, with 1.47.
As for U49C A92U, the self-cleavage turned out to be 1.42.
Turning to A47G U133C, the self-cleavage amounted to 1.99.
Regarding A51G A59G, the self-cleavage worked out at 0.89.
As to A47U A64G, the self-cleavage stood at 0.61.
Consider U49C U124A, for which the self-cleavage was 0.48.
Regarding G48C A51G, the self-cleavage came to 0.94.
A47G U70A: the self-cleavage stood at 0.83.
For the variant A47U A52G, the self-cleavage amounted to 0.81.
In the case of A47U A52U, the self-cleavage was 1.2.
For U49A A126G, the self-cleavage stood at 0.99.
For U49A A62G, the self-cleavage amounted to 0.7.
Regarding A51G A86G, the self-cleavage came to 1.46.
In the case of A51G A95U, the self-cleavage is 0.89.
For the variant U49G U87C, the self-cleavage came to 1.48.
With A47G G84C, the self-cleavage turned out to be 0.24.
For the variant A51C G73C, the self-cleavage is 0.
In the case of A51G U132A, the self-cleavage was found to be 1.68.
Then U49A A82U, with 0.18; and U49G A95G, with 1.28; and G48A A95G, with 1.29.
Take U49C A125G: the self-cleavage turned out to be 0.7.
For A47G U124C, the self-cleavage was 0.32.
Turning to U49C A62U, the self-cleavage is 0.68.
Take A51C U102A: the self-cleavage stood at 0.84.
Regarding U49C A86C, the self-cleavage amounted to 0.78.
As to A51G A54G, the self-cleavage worked out at 0.81.
Take U49A U127C: the self-cleavage came to 0.38.
With U49A U127G the figure was 1.97; with A47U A98C, 1.44.
For the variant A47U A98G, the self-cleavage amounted to 0.16.
Regarding A51G A52U, the self-cleavage was 1.49.
As for A51G A52G, the self-cleavage was found to be 1.46.
On to U49A A89C, for which the self-cleavage stood at 0.85.
As for A47U C77A, the self-cleavage was 0.69.
For the variant G50U U120C, the self-cleavage amounted to 1.29.
Regarding A47U A125G, the self-cleavage is 0.28.
Then A47G G104A, with 0.05.
Regarding A51G A69G, the self-cleavage turned out to be 1.24.
Take A51G A69U: the self-cleavage amounted to 1.41.
A51G G80A: the self-cleavage is 0.36.
As for A47U U102C, the self-cleavage came to 1.92.
As for A47U G115A, the self-cleavage was found to be 0.15.
U49C G123U: the self-cleavage stood at 0.88.
As for A47G G75U, the self-cleavage is 0.16.
